# Experimental data published in publication PMC7587433.
# pKd: −log10 of the molar value.
# Biological target: rFN12-14 (recombinant fibronectin type III repeats 12 to 14)
# Assay: SPR; Biacore T200, C1 sensor chip; rFN12-14 immobilised (~870 RU); rF-, rFG-repeat or multiple repeats in HBS-EP injected at 40 μl/min; double referencing
row,Substance,pKd
1,"r2F-repeats (recombinant Embp fragment, aa 2569 to 2908) (domain or fragment)",5.00
2,"r2FG-repeats (recombinant Embp fragment, aa 6777 to 7028) (domain or fragment)",6.30
3,"r4F-repeats (recombinant Embp fragment, aa 2569 to 3248) (domain or fragment)",4.70
4,"rF-repeat (recombinant first F-repeat of Embp, aa 2569 to 2738) (domain or fragment)",4.54
5,"rFG-repeat (recombinant 19th FG-repeat of Embp, aa 6777 to 6902) (domain or fragment)",6.89

# Biological target: fibronectin (full-length human Fn, Sigma-Aldrich) (human) (UniProt P02751)
# Assay: SPR; Biacore T200, C1 sensor chip, 25°C, HBS-EP (10 mM HEPES pH 7.4, 150 mM NaCl, 3 mM EDTA, 0.005% Surfactant P20); Fn immobilised by amine coupling (~1,000 RU); rF- and rFG-repeats injected at 40 μl/min
row,Substance,pKd
1,"rF-repeat (recombinant first F-repeat of Embp, aa 2569 to 2738)",5.40
2,"rFG-repeat (recombinant 19th FG-repeat of Embp, aa 6777 to 6902) (domain or fragment)",8.80
